Test results from US20250163180A1 (ABL BIO, published 2025).

Tests used:
[1] = target: T1, human 4-1BB-Fc protein (Sino Biological) (human, UniProt Q07011 24-186); assay: ELISA, plate coated with human 4-1BB-Fc at 0.1 ug/mL, detection with HRP-conjugated goat anti-human IgG
T1 construct: not shown: Fc part of the bought fusion protein

[2] = target: T2, human 4-1BB expressed on GloResponse NFkB-luc2/4-1BB Jurkat cells (Promega) (human, UniProt Q07011 24-255); assay: cell-based or functional assay
[3] = target: T2, human 4-1BB expressed on GloResponse …; assay: cell-based or functional assay; remark: listed apart in the source
[4] = target: T2, human 4-1BB expressed on GloResponse …; assay: cell-based or functional assay; remark: listed apart in the source

T1 sequence (Q07011 24-186 limits assumed): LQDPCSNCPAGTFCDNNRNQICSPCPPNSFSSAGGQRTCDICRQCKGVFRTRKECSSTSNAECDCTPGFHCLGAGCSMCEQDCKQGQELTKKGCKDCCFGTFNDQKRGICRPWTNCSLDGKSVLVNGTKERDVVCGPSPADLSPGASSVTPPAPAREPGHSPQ
T2 sequence (Q07011 24-255 limits assumed): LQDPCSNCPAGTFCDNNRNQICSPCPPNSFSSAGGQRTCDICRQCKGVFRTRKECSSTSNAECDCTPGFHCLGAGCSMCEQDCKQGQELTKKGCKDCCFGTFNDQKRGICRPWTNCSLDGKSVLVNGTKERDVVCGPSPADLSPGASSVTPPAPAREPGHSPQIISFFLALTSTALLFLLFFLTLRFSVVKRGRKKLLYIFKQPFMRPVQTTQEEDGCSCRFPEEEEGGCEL

B1: AB41 (antibody, human IgG4 S228P, kappa, V domains shown)
VH: QVQLQQSGAEVIKPGASVKLSCKASGYTFSSYWMHWVRQAPGQGLEWIGEINPGNGHTNYNEKFKSRATLTGDTSTSTVYMELSSLRSEDTAVYYCARSFTTARAFAYWGQGTLVTVSS
VL: DIVMTQSPAFLSVTPGEKVTITCRASQTISDYLHWYQQKPDQAPKLLIKYASQSISGIPSRFSGSGSGTDFTFTISSLEAEDAATYYCQDGHSFPPTFGQGTKLEIKR
notes: also called anti-4-1BB antibody AB41
Q: With B1 as the binder, how does the EC50 [1] read?
A: The EC50 was 0.2 nM.

B2: Urelumab (antibody, V domains shown)
VH: QVQLQQWGAGLLKPSETLSLTCAVYGGSFSGYYWSWIRQSPEKGLEWIGEINHGGYVTYNPSLESRVTISVDTSKNQFSLKLSSVTAADTAVYYCARDYGPGNYDWYFDLWGRGTLVTVSS
VL: EIVLTQSPATLSLSPGERATLSCRASQSVSSYLAWYQQKPGQAPRLLIYDASNRATGIPARFSGSGSGTDFTLTISSLEPEDFAVYYCQQRSNWPPALTFGGGTKVEIK
Q: How did the “fold difference in EC50 with against without FcγRIIb CHO-K1 cells” value [2] turn out when B2 was run?
A: Its value is 2.2 fold.

Q: What about the “fold difference in top RLU with against without FcγRIIb CHO-K1 cells” value [2] of the same binder?
A: The value was 13.5 fold.

Q: What about the “EC50, FcγRIIb-dependent 4-1BB bioassay” value [3] of the same binder?
A: Its value is 0.236 nM.

Q: And the “Fold of induction (RLU), FcγRIIb-dependent 4-1BB bioassay” value [3]?
A: The value was 196 fold.

Q: And the “EC50, FcγRIIb-independent 4-1BB bioassay” value [4]?
A: The value was 0.52 nM.

Q: What about the “Fold of induction (RLU), FcγRIIb-independent 4-1BB bioassay” value [4] of the same binder?
A: Its value is 15.6 fold.

B3: 1A10 (antibody, human IgG4 S228P, lambda, V domains shown)
VH: EVQLLESGGGLVQPGGSLRLSCAASGFTFSSYDMSWVRQAPGKGLEWVSWISYSGGSIYYADSVKGRFTISRDNSKNTLYLQMNSLRAEDTAVYYCARDGQRNSMREFDYWGQGTLVTVSS
VL: QSVLTQPPSASGTPGRRVTISCSGSSSNIGNNYVTWYQQLPGTAPKLLIYADSHRPSGVPDRFSGSKSGTSASLAISGLRSEDEADYYCATWDYSLSGYVFGGGTKLTVLG
notes: also called anti-4-1BB antibody 1A10
Q: How did the EC50 [1] turn out when B3 was run?
A: Its EC50 is 0.24 nM.

B4: 1A12 (antibody, human IgG4 S228P, lambda, V domains shown)
VH: EVQLLESGGGLVQPGGSLRLSCAASGFTFSGYDMSWVRQAPGKGLEWVSVIYPDDGNTYYADSVKGRFTISRDNSKNTLYLQMNSLRAEDAAVYYCAKHGGQKPTTKSSSAYGMDGWGQGTLVTVSS
VL: QSVLTQPPSASGTPGRRVTISCSGSSSNIGNNYVTWYQQLPGTAPKLLIYADSHRPSGVPDRFSGSKSGTSASLAISGLRSEDEADYYCATWDYSLSGYVFGGGTKLTVLG
notes: also called anti-4-1BB antibody 1A12
Q: For B4, which EC50 [1] is on record?
A: Its EC50 is 0.18 nM.
